Article PMC2173958

B1: Cdc31p (natural protein)
chain: MSKNRSSLQSGPLNSELLEEQKQEIYEAFSLFDMNNDGFLDYHELKVAMKALGFELPKREILDLIDEYDSEGRHLMKYDDFYIVMGEKILKRDPLDEIKRAFQLFDDDHTGKISIKNLRRVAKELGETLTDEELRAMIEEFDLDGDGEINENEFIAICTDS

What was measured:
[1] = biological target: GST fusion 2b of Sfi1p (246–281) (S. cerevisiae) (UniProt Q12369); test: pull-down
[2] = biological target: GST fusion 2c of Sfi1p (279–386) (S. cerevisiae) (UniProt Q12369); test: pull-down
[3] = biological target: GST fusion 3a of Sfi1p (451–474) (S. cerevisiae) (UniProt Q12369); test: pull-down
[4] = biological target: GST fusion 4a of Sfi1p (643–677) (S. cerevisiae) (UniProt Q12369); test: pull-down
[5] = biological target: GST fusion 4b of Sfi1p (676–710) (S. cerevisiae) (UniProt Q12369); test: pull-down
[6] = biological target: Sfi1p-prA (S. cerevisiae) (UniProt Q12369); test: affinity purification with mass spectrometry

Chain of UniProt Q12369 (Q12369 whole entry, the tested form may be a part): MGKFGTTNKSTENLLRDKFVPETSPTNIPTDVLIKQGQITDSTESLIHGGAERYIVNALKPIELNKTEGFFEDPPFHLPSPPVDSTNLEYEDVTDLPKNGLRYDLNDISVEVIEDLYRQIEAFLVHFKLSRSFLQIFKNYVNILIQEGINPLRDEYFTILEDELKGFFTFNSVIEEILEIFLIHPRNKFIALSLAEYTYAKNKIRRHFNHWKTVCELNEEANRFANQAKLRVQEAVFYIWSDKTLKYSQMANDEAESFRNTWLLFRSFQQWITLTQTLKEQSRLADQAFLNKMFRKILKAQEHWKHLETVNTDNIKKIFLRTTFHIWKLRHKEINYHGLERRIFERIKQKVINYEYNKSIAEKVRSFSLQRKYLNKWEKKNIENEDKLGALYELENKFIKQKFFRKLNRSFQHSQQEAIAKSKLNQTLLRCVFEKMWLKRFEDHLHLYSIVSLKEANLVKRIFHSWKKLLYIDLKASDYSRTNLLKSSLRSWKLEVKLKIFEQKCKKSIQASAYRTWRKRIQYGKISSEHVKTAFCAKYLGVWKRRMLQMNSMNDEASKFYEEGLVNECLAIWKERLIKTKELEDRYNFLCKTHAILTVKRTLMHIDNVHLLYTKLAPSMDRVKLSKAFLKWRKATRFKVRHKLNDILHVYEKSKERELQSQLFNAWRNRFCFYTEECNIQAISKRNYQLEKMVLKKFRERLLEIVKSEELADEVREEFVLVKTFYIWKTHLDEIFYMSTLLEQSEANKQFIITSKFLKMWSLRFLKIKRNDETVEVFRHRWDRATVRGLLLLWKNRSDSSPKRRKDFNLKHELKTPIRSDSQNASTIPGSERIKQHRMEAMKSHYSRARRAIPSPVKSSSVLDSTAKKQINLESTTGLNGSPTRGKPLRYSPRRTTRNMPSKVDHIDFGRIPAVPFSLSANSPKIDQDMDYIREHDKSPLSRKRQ

Row | molar ratio of Cdc31p to Sfi1p-prA (inspection of Coomassie-stained bands) [6] | Molecule | stoichiometry N [1] | molar ratio of Cdc31p to fusion (gel scan, not at saturation) [2] | stoichiometry N [3] | stoichiometry N [4] | stoichiometry N [5]
1 | – | recombinant Cdc31p (from UniProt P06704 2-161) (natural protein) | < 1.1 | 1.1 | < 1.1 | < 1.1 | < 1.1
2 | > 1 | B1 | – | – | – | – | –
